This note sets out measurements from PMC10746679.

The target in test [1] is 70-kDa N-terminal FN fragment (FN70). The experiment in a line: solid-phase binding assay. To be noted: FN70 25 μg/ml coated on plate, read off a plot.
The target of the next test is Full-length fibronectin (UniProt P02751). The experiment in a line: solid-phase binding assay. Conditions: FN-FL 25 μg/ml coated on plate, read off a plot.
[2] abbreviates: [HSP90α] 2.5 µM (read from x axis), parent: est. 1.4.
[3] abbreviates: [HSP90α] about 0.31 µM (read from x axis), parent: est. 1.1.
Where [4] appears, read: [HSP90α] about 0.63 µM (read from x axis), parent: est. 1.3.
Where [5] appears, read: [HSP90α] about 1.25 µM (read from x axis), parent: est. 1.4.

Sequence of Full-length fibronectin (P02751 32-2477): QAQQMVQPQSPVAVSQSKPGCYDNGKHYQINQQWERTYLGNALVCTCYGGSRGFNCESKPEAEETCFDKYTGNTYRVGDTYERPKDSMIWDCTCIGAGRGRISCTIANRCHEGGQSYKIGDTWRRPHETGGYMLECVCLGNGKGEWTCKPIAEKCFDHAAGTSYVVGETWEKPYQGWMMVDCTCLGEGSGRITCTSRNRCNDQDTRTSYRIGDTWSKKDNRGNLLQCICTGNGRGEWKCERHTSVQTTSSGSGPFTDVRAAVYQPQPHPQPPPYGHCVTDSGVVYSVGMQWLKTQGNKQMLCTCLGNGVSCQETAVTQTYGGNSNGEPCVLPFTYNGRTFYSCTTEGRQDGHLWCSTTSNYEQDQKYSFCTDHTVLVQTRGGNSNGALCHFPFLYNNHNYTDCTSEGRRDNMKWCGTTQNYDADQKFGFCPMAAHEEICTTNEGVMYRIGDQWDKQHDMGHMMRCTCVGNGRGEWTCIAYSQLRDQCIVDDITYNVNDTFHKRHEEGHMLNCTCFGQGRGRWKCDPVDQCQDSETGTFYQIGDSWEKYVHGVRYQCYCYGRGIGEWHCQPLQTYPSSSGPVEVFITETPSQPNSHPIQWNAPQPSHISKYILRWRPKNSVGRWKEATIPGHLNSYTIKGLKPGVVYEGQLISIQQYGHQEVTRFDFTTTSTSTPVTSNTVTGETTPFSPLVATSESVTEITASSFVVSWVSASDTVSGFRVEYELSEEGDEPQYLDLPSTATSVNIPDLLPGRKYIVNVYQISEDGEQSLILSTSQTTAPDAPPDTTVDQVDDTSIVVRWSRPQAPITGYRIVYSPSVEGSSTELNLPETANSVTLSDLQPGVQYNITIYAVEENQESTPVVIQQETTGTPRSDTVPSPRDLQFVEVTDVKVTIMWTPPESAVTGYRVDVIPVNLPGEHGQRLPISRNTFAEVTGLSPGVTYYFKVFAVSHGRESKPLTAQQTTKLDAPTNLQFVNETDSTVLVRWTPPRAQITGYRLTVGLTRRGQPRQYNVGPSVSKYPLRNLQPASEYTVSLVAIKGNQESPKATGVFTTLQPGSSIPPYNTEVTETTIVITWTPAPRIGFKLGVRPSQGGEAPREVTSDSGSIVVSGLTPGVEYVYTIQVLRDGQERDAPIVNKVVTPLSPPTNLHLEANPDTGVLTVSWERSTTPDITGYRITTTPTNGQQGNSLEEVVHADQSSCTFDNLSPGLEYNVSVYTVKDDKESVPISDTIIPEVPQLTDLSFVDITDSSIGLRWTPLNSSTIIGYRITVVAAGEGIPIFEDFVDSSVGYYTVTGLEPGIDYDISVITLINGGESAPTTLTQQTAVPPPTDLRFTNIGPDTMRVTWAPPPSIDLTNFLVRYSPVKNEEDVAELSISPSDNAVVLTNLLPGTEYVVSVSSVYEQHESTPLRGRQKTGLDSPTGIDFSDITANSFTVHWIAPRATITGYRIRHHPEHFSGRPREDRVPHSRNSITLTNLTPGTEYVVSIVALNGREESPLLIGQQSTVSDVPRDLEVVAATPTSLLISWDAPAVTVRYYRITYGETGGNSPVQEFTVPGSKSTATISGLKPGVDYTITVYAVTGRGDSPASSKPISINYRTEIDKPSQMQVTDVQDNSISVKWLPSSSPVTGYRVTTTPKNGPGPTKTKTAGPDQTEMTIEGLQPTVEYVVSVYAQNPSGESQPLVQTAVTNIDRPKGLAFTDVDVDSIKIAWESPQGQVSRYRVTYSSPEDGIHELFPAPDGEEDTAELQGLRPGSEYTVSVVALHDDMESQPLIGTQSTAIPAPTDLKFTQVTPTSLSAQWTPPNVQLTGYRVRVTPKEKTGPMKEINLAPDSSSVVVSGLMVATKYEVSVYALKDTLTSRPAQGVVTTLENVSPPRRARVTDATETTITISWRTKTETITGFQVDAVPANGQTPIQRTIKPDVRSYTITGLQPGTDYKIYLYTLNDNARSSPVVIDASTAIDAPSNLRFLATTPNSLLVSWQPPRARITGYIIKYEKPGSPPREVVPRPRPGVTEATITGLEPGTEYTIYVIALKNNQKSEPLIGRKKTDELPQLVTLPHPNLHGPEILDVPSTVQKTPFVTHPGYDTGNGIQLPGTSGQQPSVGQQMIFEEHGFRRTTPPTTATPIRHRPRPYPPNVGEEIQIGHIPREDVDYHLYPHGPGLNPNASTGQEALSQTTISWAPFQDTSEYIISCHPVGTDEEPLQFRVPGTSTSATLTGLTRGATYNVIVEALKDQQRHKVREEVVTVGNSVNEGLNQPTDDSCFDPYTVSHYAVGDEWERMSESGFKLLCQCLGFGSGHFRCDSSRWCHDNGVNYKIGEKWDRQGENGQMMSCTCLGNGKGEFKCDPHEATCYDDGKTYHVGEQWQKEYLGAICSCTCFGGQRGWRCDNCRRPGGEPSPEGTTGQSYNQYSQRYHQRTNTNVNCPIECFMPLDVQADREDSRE

Take “Recombinant full-length wild type His-HSP90α (from UniProt P07900) Y528A”: the response (Absorbance (450 nm)) in test [1] (setting [2]) was 1.1; in test [1] (setting [3]) it was 0.82; in test [1] (setting [4]) it was 0.93; in test [1] (setting [5]), 1.1.
For the substance “Recombinant full-length wild type His-HSP90α (from UniProt P07900) F352A; Y528A”, the response (Absorbance (450 nm)) in test [1] (setting [2]) came out at 1.1; in test [1] (setting [3]), 0.72; in test [1] (setting [4]), 0.83; in test [1] (setting [5]) it was 0.99.
For the substance “Recombinant full-length wild type His-HSP90α, P07900 F352A; Y528A”, the response (Absorbance (450 nm)) in the test with Full-length fibronectin (setting [2]) amounted to 0.53; with Full-length fibronectin ([HSP90α] about 0.31 µM (read from x axis), parent: est. 1.0), 0.36; with Full-length fibronectin ([HSP90α] about 0.63 µM (read from x axis), parent: est. 1.25), 0.45; with Full-length fibronectin ([HSP90α] about 1.25 µM (read from x axis), parent: est. 1.2), 0.44.
